Test results published in paper PMC9121088, “The novel P330L pathogenic variant of aromatic amino acid decarboxylase maps on the catalytic flexible loop underlying its crucial role” (Cellular and Molecular Life Sciences: CMLS, 2022).
Residue numbers refer to the chain shown, from its start. Numbers in names are those of the source.

B1: aromatic amino acid decarboxylase (AADC), wild-type (Homo sapiens) (protein)
chain: MNASEFRRRGKEMVDYMANYMEGIEGRQVYPDVEPGYLRPLIPAAAPQEPDTFEDIINDVEKIIMPGVTHWHSPYFFAYFPTASSYPAMLADMLCGAIGCIGFSWAASPACTELETVMMDWLGKMLELPKAFLNEKAGEGGGVIQGSASEATLVALLAARTKVIHRLQAASPELTQAAIMEKLVAYSSDQAHSSVERAGLIGGVKLKAIPSDGNFAMRASALQEALERDKAAGLIPFFMVATLGTTTCCSFDNLLEVGPICNKEDIWLHVDAAYAGSAFICPEFRHLLNGVEFADSFNFNPHKWLLVNFDCSAMWVKKRTDLTGAFRLDPTYLKHSHQDSGLITDYRHWQIPLGRRFRSLKMWFVFRMYGVKGLQAYIRKHVQLSHEFESLVRQDPRFEICVEVILGLVCFRLKGSNKVNEALLQRINSAKKIHLVPCHLRDKFVLRFAICSRTVESAHVQRAWEHIKELAADVLRAERE
B2: aromatic amino acid decarboxylase (AADC), P330L variant (Homo sapiens; P330L) (protein)
chain: B1 chain with P330L

How the values were obtained:
[1] = target: T1, aromatic amino acid decarboxylase (AADC), P330L variant (Homo sapiens, UniProt P20711, P330L); assay: CD thermal denaturation at […] nm ([…] to […] °C) of cDopa-bound form; assay type: binding
T1 construct: gene DDC
T1 sequence (P20711 1-480 P330L): B1 chain with P330L

[2] = target: T2, aromatic amino acid decarboxylase (AADC), wild-type (Homo sapiens, UniProt P20711); assay: CD thermal denaturation at […] nm ([…] to […] °C); DLS of cDopa-bound form; assay type: binding
T2 construct: gene DDC
T2 sequence (P20711 1-480): B1 chain

[3] = target: T1, aromatic amino acid decarboxylase (AADC), P330L variant; assay: intrinsic fluorescence quenching titration of apoenzyme (KD(PLP)); assay type: binding
[4] = target: T2, aromatic amino acid decarboxylase (AADC), wild-type; assay: as above; assay type: binding
purified protein [5] = substrate: N[C@@H](Cc1c[nH]c2ccc(O)cc12)C(=O)O; assay: purified protein; assay type: biochemical, Homo sapiens; details: pH 7.4; 25.0 °C
purified protein [6] = substrate: N[C@@H](Cc1ccc(O)c(O)c1)C(=O)O; assay: purified protein; details: PLP active site; external aldimine with PLP; pH 7.4; 25.0 °C

Molecule	P330L (°C) [1] [°C]	WT (°C) [2] [°C]	Kd [3] [nM]	Kd [4] [nM]	Km (purified protein [5]) [µM]	kcat (purified protein [5]) [s⁻¹]	kcat/Km (purified protein [5]) [M⁻¹ s⁻¹]	Km (purified protein [6]) [µM]	kcat (purified protein [6]) [s⁻¹]	kcat/Km (purified protein [6]) [M⁻¹ s⁻¹]
C[C@@](Cc1ccc(O)c(O)c1)(NN)C(=O)O [cDopa, carbiDopa]	69.9 ± 0.3	68.9 ± 0.4								
Cc1ncc(COP(=O)(O)O)c(C=O)c1O [PLP, pyridoxal 5'-phosphate]			123 ± 19	101 ± 10						
B1					9 ± 1	0.56 ± 0.02	62000 ± 7000	16 ± 1	5.5	344000
B2					29 ± 3	0.0092 ± 0.0003	320 ± 30	57 ± 2	0.0291	510
